Experimental findings from US20250277054A1 (WUXI BIOLOGICS IRELAND, published 2025) are described below.

Where two headings read alike, the source gives them in different places.

Experiment [1] concerns the target T1, Human PSMA.ECD.His (Acro) (human, UniProt Q04609 44-750).
T1 construct: extracellular domain; Bought protein with His tag; also called human PSMA ECD protein; Human PSMA/FOLH1 protein, His tag
The experiment can be described thus: ELISA, coated human PSMA protein (His tag). The protocol: (§1) Briefly, 1 μg/mL human PSMA protein (His tag) were coated onto wells in ELISA plate in coating buffer at 4° C. for 16 hours. After washing the plate with 1×PBST once, the plate was blocked by using 200 μL/well 2% BSA for one hour. After washing the plate for three times with 1×PBST, various concentrations of antibodies diluted in 2% BSA (5-fold serially diluted from 200 nM to 0.004096 pM) were added to the wells and the plate was incubated for one hour at ambient temperature. After washing the plate three times with 1×PBST, Goat anti-human-IgG-Fc-HRP (at 1:5000 dilution) was added into wells and incubated for one hour. After washing six times with 1×PBST, 100 μL/well of TMB substrate solution was added into wells and incubated for 5 minutes in dark and then 100 μL/well of 2M HCl was added into wells to stop the reaction. The relative light unit (RLU) was measured at OD₄₅₀ and OD₅₄₀ by SPECTRAMAX M5E. The binding EC₅₀ was calculated by GraphPad Prism 7 software by plotting antibody concentration (x-axis) versus OD₄₅₀₋₅₄₀ (y-axis) and analyzing as: Nonlinear regression (curve fit)-log (agonist) vs. response-Variable slope (four parameters).
A general note: In an ELISA, binding on a coated surface is turned into a signal by an enzyme label.

The target in experiment [2] is T2, Mouse PSMA.ECD.His (Acro) (mouse, UniProt O35409 45-752).
T2 construct: extracellular domain; Bought protein with His tag; also called mouse PSMA protein (His tag); Mouse PSMA/FOLH1 protein, His tag
The experiment can be described thus: ELISA, coated mouse PSMA protein (His tag). Here is the method:
(§2) Briefly, 1 μg/mL cynomolgus PSMA protein (His tag) and 2 μg/mL mouse PSMA protein (His tag) were coated onto wells in an ELISA plate in coating buffer at 4° C. for 16 hours. After washing plate with 1×PBST once, the plate was blocked by using 200 μL/well 2% BSA for one hour. […] After washing three times with 1×PBST, Goat anti-human-IgG-Fc-HRP (at 1:5000 dilution) was added and incubated for one hour. After washing six times with 1×PBST, 100 μL/well of TMB substrate solution was added into wells and incubated for 5 minutes in dark and then 100 μL/well of 2M HCL were added into wells to stop the reaction. The relative light unit (RLU) was measured at OD₄₅₀ and OD₅₄₀ by SPECTRAMAX M5E. EC₅₀ was determined as described above.

Experiment [3] concerns the target T3, Human CD3δ & CD3ε heterodimer protein (Flag & His Tag) (human, UniProt P04234 22-105; P07766 23-126).
T3 construct: Bought heterodimer with Flag and His tags
The experiment can be described thus: SPR (Biacore 8K), antibody captured by anti-human IgG Fc, CD3δ & CD3ε heterodimer injected, 1:1 model. The protocol:
Each antibody was captured on an anti-human IgG Fc antibody immobilized CM5 sensor chip (Cytiva). human CD3δ & CD3ε heterodimer at different concentrations were injected over the sensor chip at a flow rate of 30 μL/min for an association phase of 120 s, followed by 240 s dissociation. The chip was regenerated by 10 mM glycine (pH 1.5) after each binding cycle.
The sensorgrams of blank surface and buffer channel were subtracted from the test sensorgrams. The experimental data was fitted by 1:1 binding model. Molecular weight of 31 kDa was used to calculate the molar concentration of human CD3δ & CD3ε heterodimer.

The target of experiment [4] is T4, Cyno PSMA.ECD.His (Acro) (cynomolgus, UniProt A0A2K5VNZ0 44-750).
T4 construct: extracellular domain; Bought protein with His tag; also called cynomolgus PSMA ECD protein; Cynomolgus PSMA/FOLH1 protein, His tag
Nature of the experiment: ELISA, coated cynomolgus PSMA protein (His tag). The protocol:
as §2

Experiment [5] addresses T1, Human PSMA.ECD.His (Acro). Nature of the experiment: ELISA, coated human PSMA protein (His tag). The protocol:
as §1
The source holds these as a separate data set.

Experiment [6] deals with T5, human PSMA on human prostate cancer cells (LNCaP, C4-2, 22Rv1) (human, UniProt Q04609 1-750). Nature of the experiment: cell-based or functional assay.
Experiment [7] deals with T5, human PSMA on human prostate cancer …. The experiment can be described thus: flow cytometry on 22Rv1 cells (PSMA low). The protocol:
(§3) After washing twice with 1×PBS/1% BSA/0.1 mM EDTA, Alexa fluor 647-labeled goat anti-human IgG Fc (at 1:500 dilution) was added and the plate was incubated at 4° C. for half an hour in dark. After washing twice with 1×PBS/1% BSA/0.1 mM EDTA, cells were re-suspended in 1×PBS/1% BSA/0.1 mM EDTA, and mean fluorescence intensity (MFI) was measured by a flow cytometer and analyzed by FLOWJO. The binding EC₅₀ was calculated by GraphPad Prism 7 software by plotting antibody concentration (x-axis) versus […] (y-axis) and analyzing as: Nonlinear regression (curve fit)-log (agonist) vs. response-Variable slope (four parameters).

The target is the same in experiment [8]. Nature of the experiment: flow cytometry on LNCaP cells (PSMA high). The protocol: as §3
For experiment [9] the target is unchanged. The experiment can be described thus: flow cytometry on C4-2 cells (PSMA high). Here is the method:
as §3
A general note: A flow cytometer gives signals particle by particle.

Experiment [10] deals with T4, Cyno PSMA.ECD.His (Acro). The experiment can be described thus: ELISA, coated cynomolgus PSMA protein (His tag). The protocol: as §2
This is another data set of the same source.

Experiment [11] has as its target T6, full-length cynomolgus PSMA on Flp-in CHO cells (WBP3xx042-FlpinCHO.cPro1.B7) (cynomolgus, UniProt A0A2K5VNZ0 1-750).
T6 construct: whole, on cells; also called Cyno PSMA+ CHO cells; FlpInCHO-cyno PSMA
The experiment can be described thus: flow cytometry on FlpInCHO-cyno PSMA cells. Here is the method:
WBP3xx042-FlpinCHO.cPro1.B7 (5×10⁴ cells) was incubated with various concentrations of antibodies 4° C. for one hour. After washing twice with 1×PBS/1% BSA/0.1 mM EDTA, secondary antibody, Alexa fluor 647-labeled goat anti-human IgG Fc, was added and the plate was incubated at 4° C. for half an hour in dark. After washing twice with 1×PBS/1% BSA/0.1 mM EDTA, cells were re-suspended in 1×PBS/1% BSA/0.1 mM EDTA. MFI and EC₅₀ were determined as described above.

The target in experiment [12] is T7, Biotinylated Human PSMA/FOLH1 Protein, His, Avitag (human, UniProt Q04609 44-750, biotin label (Avitag)).
T7 construct: Bought protein; also called Human PSMA Protein (His Tag & biotin label)
The experiment can be described thus: SPR (Biacore 8K), biotinylated human PSMA captured on streptavidin chip, antibody injected, single-cycle, 1:1 model. The protocol:
Biotinylated human PSMA was captured on a streptavidin-immobilized CM5 sensor chip (Cytiva). Antibodies at different concentrations were injected over the sensor chip in an injection type of single-cycle at a flow rate of 30 μL/min for an association phase of 180 s, followed by 600-3600 s dissociation. The chip was then regenerated by 10 mM glycine (pH1.5) at the last binding cycle.
The sensorgrams of the blank surface and buffer channel were subtracted from the test sensorgrams. The experimental data were fitted by 1:1 binding model.
Background: Surface plasmon resonance follows binding to a sensor surface in real time, without labels.

Experiment [13] has as its target T5, human PSMA on human prostate cancer …. The experiment can be described thus: cell-based or functional assay. This is another data set of the same source.

T7 sequence (Q04609 44-750 limits assumed): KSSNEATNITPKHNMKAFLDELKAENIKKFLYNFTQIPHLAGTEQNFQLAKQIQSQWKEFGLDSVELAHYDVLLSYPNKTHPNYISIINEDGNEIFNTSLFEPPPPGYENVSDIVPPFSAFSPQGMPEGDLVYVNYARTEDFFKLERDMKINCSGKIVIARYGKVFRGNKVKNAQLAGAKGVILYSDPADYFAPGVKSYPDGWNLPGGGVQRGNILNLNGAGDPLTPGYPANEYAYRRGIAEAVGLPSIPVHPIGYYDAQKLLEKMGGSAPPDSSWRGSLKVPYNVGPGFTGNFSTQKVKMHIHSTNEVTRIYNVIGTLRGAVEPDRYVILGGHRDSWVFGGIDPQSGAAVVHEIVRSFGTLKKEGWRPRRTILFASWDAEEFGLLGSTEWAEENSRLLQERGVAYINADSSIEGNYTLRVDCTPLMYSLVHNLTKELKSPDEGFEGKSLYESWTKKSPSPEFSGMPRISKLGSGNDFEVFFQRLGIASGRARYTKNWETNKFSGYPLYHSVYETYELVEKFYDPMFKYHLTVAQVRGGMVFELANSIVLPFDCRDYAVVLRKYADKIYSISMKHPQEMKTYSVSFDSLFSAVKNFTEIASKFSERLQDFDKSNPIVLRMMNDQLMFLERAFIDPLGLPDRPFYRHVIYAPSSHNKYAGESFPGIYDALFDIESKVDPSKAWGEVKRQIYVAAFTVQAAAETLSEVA
T5 sequence (Q04609 whole entry): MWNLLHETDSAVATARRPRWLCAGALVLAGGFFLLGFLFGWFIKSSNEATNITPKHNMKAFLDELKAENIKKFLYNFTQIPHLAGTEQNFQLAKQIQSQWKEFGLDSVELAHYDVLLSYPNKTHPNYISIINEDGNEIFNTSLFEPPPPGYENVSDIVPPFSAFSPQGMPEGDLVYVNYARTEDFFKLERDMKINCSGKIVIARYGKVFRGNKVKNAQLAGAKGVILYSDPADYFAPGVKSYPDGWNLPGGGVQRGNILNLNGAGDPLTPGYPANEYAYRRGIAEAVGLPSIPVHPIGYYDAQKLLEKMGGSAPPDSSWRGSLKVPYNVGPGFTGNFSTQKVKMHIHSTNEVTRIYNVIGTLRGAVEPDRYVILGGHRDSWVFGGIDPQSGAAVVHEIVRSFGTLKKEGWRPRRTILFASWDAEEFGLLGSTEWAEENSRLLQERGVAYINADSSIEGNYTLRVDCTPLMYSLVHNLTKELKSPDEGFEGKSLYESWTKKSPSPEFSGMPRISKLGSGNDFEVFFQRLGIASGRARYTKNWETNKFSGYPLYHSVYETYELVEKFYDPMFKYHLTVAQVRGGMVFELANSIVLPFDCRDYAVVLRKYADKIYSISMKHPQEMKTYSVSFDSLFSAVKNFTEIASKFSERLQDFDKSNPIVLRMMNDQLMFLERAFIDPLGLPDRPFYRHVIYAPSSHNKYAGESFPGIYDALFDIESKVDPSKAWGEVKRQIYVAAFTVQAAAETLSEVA
T3 sequence (P04234 22-105, stated change not applied, form in doubt, chain 1 of 2): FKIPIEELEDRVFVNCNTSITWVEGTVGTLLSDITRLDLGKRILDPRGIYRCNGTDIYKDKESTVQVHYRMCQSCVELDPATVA
T3 sequence (P07766 23-126, stated change not applied, form in doubt, chain 2 of 2): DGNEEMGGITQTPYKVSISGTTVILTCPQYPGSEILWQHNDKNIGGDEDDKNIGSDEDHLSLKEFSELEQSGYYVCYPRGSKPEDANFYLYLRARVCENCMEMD
T1 sequence (Q04609 44-750): as the sequence (Q04609 44-750 limits assumed) above
T2 sequence (O35409 45-752): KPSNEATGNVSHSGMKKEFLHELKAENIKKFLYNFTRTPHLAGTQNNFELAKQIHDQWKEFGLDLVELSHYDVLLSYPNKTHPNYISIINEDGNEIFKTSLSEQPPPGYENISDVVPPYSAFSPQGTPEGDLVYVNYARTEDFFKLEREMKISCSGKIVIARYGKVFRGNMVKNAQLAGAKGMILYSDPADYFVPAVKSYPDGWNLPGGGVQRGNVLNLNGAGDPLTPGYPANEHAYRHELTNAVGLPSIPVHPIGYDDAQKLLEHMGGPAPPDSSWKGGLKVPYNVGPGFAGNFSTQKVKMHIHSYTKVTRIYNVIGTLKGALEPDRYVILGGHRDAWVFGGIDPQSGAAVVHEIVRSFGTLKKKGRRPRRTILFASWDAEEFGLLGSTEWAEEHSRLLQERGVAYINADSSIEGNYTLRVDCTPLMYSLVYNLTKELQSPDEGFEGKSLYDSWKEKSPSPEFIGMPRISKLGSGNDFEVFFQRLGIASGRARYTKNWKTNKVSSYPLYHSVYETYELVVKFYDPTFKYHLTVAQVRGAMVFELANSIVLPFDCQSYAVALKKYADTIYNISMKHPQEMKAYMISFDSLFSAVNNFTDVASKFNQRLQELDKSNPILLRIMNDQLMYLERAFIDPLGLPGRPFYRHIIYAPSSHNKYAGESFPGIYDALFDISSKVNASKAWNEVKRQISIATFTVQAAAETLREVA

B1: W308051-T3U5.E17-61.uIgG4V322 (bispecific antibody)
heavy 1: QVQLVQSGAEVKKPGSSVKVSCKASGFAFTDYYIHWVRQAPGQGLEWMGWISPGNVNTKYNENFKGRVTITADKSTSTAYMELSSLRSEDTAVYYCARDGYSLYYFDYWGQGTLVTVLEDLKNVFPPEVAVFEPSECEISHTQKATLVCLATGFYPDHVELSWWVNGKEVHSGVCTDPQPLKEQPALQDSRYALSSRLRVSATFWQNPRNHFRCQVQFYGLSENDEWTQDRAKPVTQIVSAEAWGRYGPPCPPCPAPEAAGGPSVFLFPPKPKDTLMISRTPEVTCVVVDVSQEDPEVQFNWYVDGVEVHNAKTKPREEQFNSTYRVVSVLTVLHQDWLNGKEYKCKVSNKGLPSSIEKTISKAKGQPREPQVYTLPPCQEEMTKNQVSLWCLVKGFYPSDIAVEWESNGQPENNYKTTPPVLDSDGSFFLYSRLTVDKSRWQEGNVFSCSVMHEALHNHYTQKSLSLSLG
light 1: DIVMTQSPDSLAVSLGERATINCKSSQSLLNSRTRKNYLAWYQQKPGQPPKLLIYWASTRQSGVPDRFSGSGSGTDFTLTISSLQAEDVAVYYCTQSHTLRTFGGGTKVEIKPDIQNPDPAVYQLRDSKSSDKSVCLFTDFDSQTQVSQSKDSDVYITDKCVLDMRSMDFKSNSAVAWSQKSDFACANAFQNSIIPEDTFFCS
heavy 2: EVQLVQSGAEVKKPGESLKISCKASGYSFTTYWIGWVRQMPGKGLELMGIIYPYDSDTRYSPSFQGQVTISADKSINTAYLQWSSLKASDTAMYYCARITGGYLFDYWGQGILVTVSSASTKGPSVFPLAPCSRSTSESTAALGCLVKDYFPEPVTVSWNSGALTSGVHTFPAVLQSSGLYSLSSVVTVPSSSLGTKTYTCNVDHKPSNTKVDKRVESKYGPPCPPCPAPEAAGGPSVFLFPPKPKDTLMISRTPEVTCVVVDVSQEDPEVQFNWYVDGVEVHNAKTKPREEQFNSTYRVVSVLTVLHQDWLNGKEYKCKVSNKGLPSSIEKTISKAKGQPREPQVCTLPPSQEEMTKNQVSLSCAVKGFYPSDIAVEWESNGQPENNYKTTPPVLDSDGSFFLVSRLTVDKSRWQEGNVFSCSVMHEALHNHYTQKSLSLSLG
light 2: QSALTQPPSASGSPGQSVTISCTGTSSDVGGYNYVSWYQQHPGKAPKLMIYEVTKRPSGVPDRFSGSKSGNTASLTVSGLQAEDEADYYCTSYAGSNKYVFGTGTKVTVLGQPKAAPSVTLFPPSSEELQANKATLVCLISDFYPGAVTVAWKADSSPVKAGVETTTPSKQSNNKYAASSYLSLTPEQWKSHKSYSCQVTHEGSTVEKTVAPTECS
notes: CD3xPSMA bispecific; also called WBP308051
Take B1: the EC50 is 0.03 nM in experiment [1]; 1.34 nM in experiment [2]; 0.045 nM in [4]; 0.027 nM in experiment [5]; 0.29 nM in experiment [7]; 0.58 nM in [8]. In addition, the figures for the EC50 in [9], in experiment [10] and in experiment [11] were 1.48 nM, 0.05 nM and 3.2 nM, respectively. Also, the Kd in experiment [3] came to 60.2 nM; in experiment [12], 0.0158 nM. In addition, the koff in [3] is 0.0331 s⁻¹; in experiment [12], 1.39e-05 s⁻¹. For the same molecule, the kon was 550000 M⁻¹ s⁻¹ in experiment [3] and 880000 M⁻¹ s⁻¹ in experiment [12]. For the same molecule, the “IC50 of T cell cytotoxicity, CD3+ T + C4-2” value in experiment [6] was determined as 0.082 nM. Further, the “IC50 of T cell cytotoxicity, CD3+ T + LNCaP” value in experiment [6] is 0.037 nM. Besides, the “EC50 of IFN-γ release, CD3+ T + C4-2” value in experiment [13] is approximately 0.16 nM.

What is called EC50 is the midpoint of the concentration-response curve. As a reminder, the Kd is the equilibrium constant for the complex coming apart. The koff is the rate constant with which the complex falls apart. Low readings indicate a long-lived complex, high ones a short-lived complex. The term kon denotes the second-order rate constant of association. High values mean fast association, low ones slow association.
